# Results taken from patent US12679878B2, “CRF2 receptor agonists and their use in therapy” (SANOFI, priority 2020, dated 2026).
# Starred links: 1 amine or outer side, 2 acyl side, 3 side chain; linkers in the order of their positions; H or OH if unused. Non-standard residues stand in square brackets, D forms with d. Groups on a side chain read outwards from the residue. No end group written: not given here. *: point of attachment. γGlu = O=C(O)[C@H](CCC(=O)[*:2])N[*:1]; Palmitoyl = CCCCCCCCCCCCCCCC(=O)*
# T1: anti-target CRF1R receptor (UniProt P34998 24-415, limits assumed)
# T1 sequence (looked up): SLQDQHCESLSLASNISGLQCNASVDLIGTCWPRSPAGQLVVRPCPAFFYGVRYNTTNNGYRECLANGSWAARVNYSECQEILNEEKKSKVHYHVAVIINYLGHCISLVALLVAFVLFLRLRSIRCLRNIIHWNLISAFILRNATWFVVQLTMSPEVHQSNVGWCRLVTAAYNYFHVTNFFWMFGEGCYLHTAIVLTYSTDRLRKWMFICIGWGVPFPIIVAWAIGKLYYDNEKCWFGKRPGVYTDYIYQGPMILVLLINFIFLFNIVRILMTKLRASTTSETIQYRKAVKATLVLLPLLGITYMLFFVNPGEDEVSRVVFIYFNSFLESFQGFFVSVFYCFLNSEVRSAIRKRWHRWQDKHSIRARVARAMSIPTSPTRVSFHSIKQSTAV
# B1: peptide of SEQ ID NO: 9 (peptide)
# peptide: FTLSLDVPTKIK([γGlu-Palmitoyl])QKLLKQEKQKKQRQKAKTAKQILEQV-NH2
# modifications: N-terminus assumed
# SMILES: CCCCCCCCCCCCCCCC(=O)N[C@@H](CCC(=O)NCCCC[C@H](NC(=O)[C@@H](NC(=O)[C@H](CCCCN)NC(=O)[C@@H](NC(=O)[C@@H]1CCCN1C(=O)[C@@H](NC(=O)[C@H](CC(=O)O)NC(=O)[C@H](CC(C)C)NC(=O)[C@H](CO)NC(=O)[C@H](CC(C)C)NC(=O)[C@@H](NC(=O)[C@@H](N)Cc1ccccc1)[C@@H](C)O)C(C)C)[C@@H](C)O)[C@@H](C)CC)C(=O)N[C@@H](CCC(N)=O)C(=O)N[C@@H](CCCCN)C(=O)N[C@@H](CC(C)C)C(=O)N[C@@H](CC(C)C)C(=O)N[C@@H](CCCCN)C(=O)N[C@@H](CCC(N)=O)C(=O)N[C@@H](CCC(=O)O)C(=O)N[C@@H](CCCCN)C(=O)N[C@@H](CCC(N)=O)C(=O)N[C@@H](CCCCN)C(=O)N[C@@H](CCCCN)C(=O)N[C@@H](CCC(N)=O)C(=O)N[C@@H](CCCNC(=N)N)C(=O)N[C@@H](CCC(N)=O)C(=O)N[C@@H](CCCCN)C(=O)N[C@@H](C)C(=O)N[C@@H](CCCCN)C(=O)N[C@H](C(=O)N[C@@H](C)C(=O)N[C@@H](CCCCN)C(=O)N[C@@H](CCC(N)=O)C(=O)N[C@H](C(=O)N[C@@H](CC(C)C)C(=O)N[C@@H](CCC(=O)O)C(=O)N[C@@H](CCC(N)=O)C(=O)N[C@H](C(N)=O)C(C)C)[C@@H](C)CC)[C@@H](C)O)C(=O)O
# B2: peptide of SEQ ID NO: 12 (peptide)
# peptide: FTLSLDVPTKIK([γGlu-Palmitoyl])QKLLKQEKQRKQKQQAKTNAKILARV-NH2
# modifications: N-terminus assumed
# SMILES: CCCCCCCCCCCCCCCC(=O)N[C@@H](CCC(=O)NCCCC[C@H](NC(=O)[C@@H](NC(=O)[C@H](CCCCN)NC(=O)[C@@H](NC(=O)[C@@H]1CCCN1C(=O)[C@@H](NC(=O)[C@H](CC(=O)O)NC(=O)[C@H](CC(C)C)NC(=O)[C@H](CO)NC(=O)[C@H](CC(C)C)NC(=O)[C@@H](NC(=O)[C@@H](N)Cc1ccccc1)[C@@H](C)O)C(C)C)[C@@H](C)O)[C@@H](C)CC)C(=O)N[C@@H](CCC(N)=O)C(=O)N[C@@H](CCCCN)C(=O)N[C@@H](CC(C)C)C(=O)N[C@@H](CC(C)C)C(=O)N[C@@H](CCCCN)C(=O)N[C@@H](CCC(N)=O)C(=O)N[C@@H](CCC(=O)O)C(=O)N[C@@H](CCCCN)C(=O)N[C@@H](CCC(N)=O)C(=O)N[C@@H](CCCNC(=N)N)C(=O)N[C@@H](CCCCN)C(=O)N[C@@H](CCC(N)=O)C(=O)N[C@@H](CCCCN)C(=O)N[C@@H](CCC(N)=O)C(=O)N[C@@H](CCC(N)=O)C(=O)N[C@@H](C)C(=O)N[C@@H](CCCCN)C(=O)N[C@H](C(=O)N[C@@H](CC(N)=O)C(=O)N[C@@H](C)C(=O)N[C@@H](CCCCN)C(=O)N[C@H](C(=O)N[C@@H](CC(C)C)C(=O)N[C@@H](C)C(=O)N[C@@H](CCCNC(=N)N)C(=O)N[C@H](C(N)=O)C(C)C)[C@@H](C)CC)[C@@H](C)O)C(=O)O
# B3: peptide of SEQ ID NO: 4 (peptide)
# peptide: IVLSLDVPIGLK([γGlu-Palmitoyl])QKLLKQEKQEKEKQQAETNAKILAQV-NH2
# modifications: N-terminus assumed
# SMILES: CCCCCCCCCCCCCCCC(=O)N[C@@H](CCC(=O)NCCCC[C@H](NC(=O)[C@H](CC(C)C)NC(=O)CNC(=O)[C@@H](NC(=O)[C@@H]1CCCN1C(=O)[C@@H](NC(=O)[C@H](CC(=O)O)NC(=O)[C@H](CC(C)C)NC(=O)[C@H](CO)NC(=O)[C@H](CC(C)C)NC(=O)[C@@H](NC(=O)[C@@H](N)[C@@H](C)CC)C(C)C)C(C)C)[C@@H](C)CC)C(=O)N[C@@H](CCC(N)=O)C(=O)N[C@@H](CCCCN)C(=O)N[C@@H](CC(C)C)C(=O)N[C@@H](CC(C)C)C(=O)N[C@@H](CCCCN)C(=O)N[C@@H](CCC(N)=O)C(=O)N[C@@H](CCC(=O)O)C(=O)N[C@@H](CCCCN)C(=O)N[C@@H](CCC(N)=O)C(=O)N[C@@H](CCC(=O)O)C(=O)N[C@@H](CCCCN)C(=O)N[C@@H](CCC(=O)O)C(=O)N[C@@H](CCCCN)C(=O)N[C@@H](CCC(N)=O)C(=O)N[C@@H](CCC(N)=O)C(=O)N[C@@H](C)C(=O)N[C@@H](CCC(=O)O)C(=O)N[C@H](C(=O)N[C@@H](CC(N)=O)C(=O)N[C@@H](C)C(=O)N[C@@H](CCCCN)C(=O)N[C@H](C(=O)N[C@@H](CC(C)C)C(=O)N[C@@H](C)C(=O)N[C@@H](CCC(N)=O)C(=O)N[C@H](C(N)=O)C(C)C)[C@@H](C)CC)[C@@H](C)O)C(=O)O
# B4: peptide of SEQ ID NO: 10 (peptide)
# peptide: FTLSLDVPTKIK([γGlu-Palmitoyl])QKLLKQEKQKKQRQKAKTNKQILEQV-NH2
# modifications: N-terminus assumed
# SMILES: CCCCCCCCCCCCCCCC(=O)N[C@@H](CCC(=O)NCCCC[C@H](NC(=O)[C@@H](NC(=O)[C@H](CCCCN)NC(=O)[C@@H](NC(=O)[C@@H]1CCCN1C(=O)[C@@H](NC(=O)[C@H](CC(=O)O)NC(=O)[C@H](CC(C)C)NC(=O)[C@H](CO)NC(=O)[C@H](CC(C)C)NC(=O)[C@@H](NC(=O)[C@@H](N)Cc1ccccc1)[C@@H](C)O)C(C)C)[C@@H](C)O)[C@@H](C)CC)C(=O)N[C@@H](CCC(N)=O)C(=O)N[C@@H](CCCCN)C(=O)N[C@@H](CC(C)C)C(=O)N[C@@H](CC(C)C)C(=O)N[C@@H](CCCCN)C(=O)N[C@@H](CCC(N)=O)C(=O)N[C@@H](CCC(=O)O)C(=O)N[C@@H](CCCCN)C(=O)N[C@@H](CCC(N)=O)C(=O)N[C@@H](CCCCN)C(=O)N[C@@H](CCCCN)C(=O)N[C@@H](CCC(N)=O)C(=O)N[C@@H](CCCNC(=N)N)C(=O)N[C@@H](CCC(N)=O)C(=O)N[C@@H](CCCCN)C(=O)N[C@@H](C)C(=O)N[C@@H](CCCCN)C(=O)N[C@H](C(=O)N[C@@H](CC(N)=O)C(=O)N[C@@H](CCCCN)C(=O)N[C@@H](CCC(N)=O)C(=O)N[C@H](C(=O)N[C@@H](CC(C)C)C(=O)N[C@@H](CCC(=O)O)C(=O)N[C@@H](CCC(N)=O)C(=O)N[C@H](C(N)=O)C(C)C)[C@@H](C)CC)[C@@H](C)O)C(=O)O
# B5: peptide of SEQ ID NO: 6 (peptide)
# peptide: IVLSLDVPIGLK([γGlu-Palmitoyl])QKLLKQQRQRKERQQAEKNARILARV-NH2
# modifications: N-terminus assumed
# SMILES: CCCCCCCCCCCCCCCC(=O)N[C@@H](CCC(=O)NCCCC[C@H](NC(=O)[C@H](CC(C)C)NC(=O)CNC(=O)[C@@H](NC(=O)[C@@H]1CCCN1C(=O)[C@@H](NC(=O)[C@H](CC(=O)O)NC(=O)[C@H](CC(C)C)NC(=O)[C@H](CO)NC(=O)[C@H](CC(C)C)NC(=O)[C@@H](NC(=O)[C@@H](N)[C@@H](C)CC)C(C)C)C(C)C)[C@@H](C)CC)C(=O)N[C@@H](CCC(N)=O)C(=O)N[C@@H](CCCCN)C(=O)N[C@@H](CC(C)C)C(=O)N[C@@H](CC(C)C)C(=O)N[C@@H](CCCCN)C(=O)N[C@@H](CCC(N)=O)C(=O)N[C@@H](CCC(N)=O)C(=O)N[C@@H](CCCNC(=N)N)C(=O)N[C@@H](CCC(N)=O)C(=O)N[C@@H](CCCNC(=N)N)C(=O)N[C@@H](CCCCN)C(=O)N[C@@H](CCC(=O)O)C(=O)N[C@@H](CCCNC(=N)N)C(=O)N[C@@H](CCC(N)=O)C(=O)N[C@@H](CCC(N)=O)C(=O)N[C@@H](C)C(=O)N[C@@H](CCC(=O)O)C(=O)N[C@@H](CCCCN)C(=O)N[C@@H](CC(N)=O)C(=O)N[C@@H](C)C(=O)N[C@@H](CCCNC(=N)N)C(=O)N[C@H](C(=O)N[C@@H](CC(C)C)C(=O)N[C@@H](C)C(=O)N[C@@H](CCCNC(=N)N)C(=O)N[C@H](C(N)=O)C(C)C)[C@@H](C)CC)C(=O)O
# B6: peptide of SEQ ID NO: 5 (peptide)
# peptide: IVLSLDVPIGLK([γGlu-Palmitoyl])QKLLKQQRQRKERQQAETNARILARV-NH2
# modifications: N-terminus assumed
# SMILES: CCCCCCCCCCCCCCCC(=O)N[C@@H](CCC(=O)NCCCC[C@H](NC(=O)[C@H](CC(C)C)NC(=O)CNC(=O)[C@@H](NC(=O)[C@@H]1CCCN1C(=O)[C@@H](NC(=O)[C@H](CC(=O)O)NC(=O)[C@H](CC(C)C)NC(=O)[C@H](CO)NC(=O)[C@H](CC(C)C)NC(=O)[C@@H](NC(=O)[C@@H](N)[C@@H](C)CC)C(C)C)C(C)C)[C@@H](C)CC)C(=O)N[C@@H](CCC(N)=O)C(=O)N[C@@H](CCCCN)C(=O)N[C@@H](CC(C)C)C(=O)N[C@@H](CC(C)C)C(=O)N[C@@H](CCCCN)C(=O)N[C@@H](CCC(N)=O)C(=O)N[C@@H](CCC(N)=O)C(=O)N[C@@H](CCCNC(=N)N)C(=O)N[C@@H](CCC(N)=O)C(=O)N[C@@H](CCCNC(=N)N)C(=O)N[C@@H](CCCCN)C(=O)N[C@@H](CCC(=O)O)C(=O)N[C@@H](CCCNC(=N)N)C(=O)N[C@@H](CCC(N)=O)C(=O)N[C@@H](CCC(N)=O)C(=O)N[C@@H](C)C(=O)N[C@@H](CCC(=O)O)C(=O)N[C@H](C(=O)N[C@@H](CC(N)=O)C(=O)N[C@@H](C)C(=O)N[C@@H](CCCNC(=N)N)C(=O)N[C@H](C(=O)N[C@@H](CC(C)C)C(=O)N[C@@H](C)C(=O)N[C@@H](CCCNC(=N)N)C(=O)N[C@H](C(N)=O)C(C)C)[C@@H](C)CC)[C@@H](C)O)C(=O)O
# Biological target: T1, anti-target CRF1R receptor
# Assay: cell-based or functional assay
Binder,"EC50[nM] 0% HSA (cAMP, CRF1R-overexpression CHO cells) [nM]","Emax (%) (cAMP, CRF1R-overexpression CHO cells)"
B1,> 1000,14.9
B2,> 1000,41.8
B3,> 1000,17.4
B4,> 1000,10.2
B5,830,47.2
B6,> 1000,37.4
IVLSLD[dV]PTKLK([γGlu-Palmitoyl])QKLLKQERQRKEREQAEKNARILARV-NH2 (not fully specified; printed as IVLSLDvPTKLK*QKLLKQERQRKEREQAEKNARILARV-NH2) [peptide of SEQ ID NO: 7],588,58.6
